The values below come from article PMC2824034, “The indispensable N-terminal half of eIF3j/HCR1 co-operates with its structurally conserved binding partner eIF3b/PRT1-RRM and eIF1A in stringent AUG selection” (Journal of molecular biology, 2010).

To fix the notation:
B1: heIF3b-RRM_(170-274) (domain or fragment, human, UniProt P55884 170-274, looked up)
chain: GDVLKDRPQEADGIDSVIVVDNVPQVGPDRLEKLKNVIHKIFSKFGKITNDFYPEEDGKTKGYIFLEYASPAHAVDAVKNADGYKLDKQHTFRVNLFTDFDKYMT
notes: 13C/15N-labeled in some NMR samples; The limits are printed for the NMR complex; the ITC names only heIF3b-RRM; also called human eIF3b-RRM; heIF3b-RRM domain; source: E. coli BL21(DE3), purified (nickel-chelating column, TEV cleavage, second nickel column)

Holding throughout (settings): both partners purified
The target in one test is T1, heIF3j-W52A (human, UniProt O75822 1-258, W52A).
T1 construct: human eIF3j, full length, W52A; source: E. coli BL21(DE3), purified (nickel-chelating column, TEV cleavage, second nickel column)
T1 sequence (O75822 whole entry W52A): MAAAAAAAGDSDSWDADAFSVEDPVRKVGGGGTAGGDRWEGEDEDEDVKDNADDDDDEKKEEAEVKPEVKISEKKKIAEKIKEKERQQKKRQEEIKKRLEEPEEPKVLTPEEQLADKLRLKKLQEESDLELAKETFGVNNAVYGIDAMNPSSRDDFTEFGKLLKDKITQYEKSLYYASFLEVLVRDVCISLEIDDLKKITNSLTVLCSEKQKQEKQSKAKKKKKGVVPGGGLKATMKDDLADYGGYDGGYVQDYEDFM
Nature of the test: ITC; VP-ITC; cell: 50 μM full-length heIF3j wt or mutant; syringe: 1 mM heIF3b-RRM; 20 mM Hepes pH 7.5, 200 mM NaCl, 25°C. On the technique in general: Isothermal titration calorimetry measures the heat released or taken up as one component is titrated into another.

The target of test [1] is T2, heIF3j (full-length, untagged, wt) (human, UniProt O75822 1-258).
T2 construct: human eIF3j, full length; also called human eIF3j; wt heIF3j; source: E. coli BL21(DE3), purified (nickel-chelating column, TEV cleavage, second nickel column)
T2 sequence (O75822 whole entry): as the sequence (O75822 whole entry W52A) above, with A52W counted along it
The test is described as above.

The target in another test is T3, heIF3j-N51A (human, UniProt O75822 1-258, N51A).
T3 construct: human eIF3j, full length, N51A; source: E. coli BL21(DE3), purified (nickel-chelating column, TEV cleavage, second nickel column)
T3 sequence (O75822 whole entry N51A): as the sequence (O75822 whole entry W52A) above, with N51A, A52W counted along it
Described as above.

For a further test, the target named is T4, heIF3j-D50K-D53K-D57K (human, UniProt O75822 1-258, D50K | D53K | D57K).
T4 construct: human eIF3j, full length, D50K, D53K and D57K; source: E. coli BL21(DE3), purified (nickel-chelating column, TEV cleavage, second nickel column)
T4 sequence (O75822 whole entry D50K/D53K/D57K): as the sequence (O75822 whole entry W52A) above, with D50K, A52W, D53K, D57K counted along it
The description is as above.

For a further test, the target named is T5, heIF3j-N51A-W52A (human, UniProt O75822 1-258, N51A | W52A).
T5 construct: human eIF3j, full length, N51A and W52A; source: E. coli BL21(DE3), purified (nickel-chelating column, TEV cleavage, second nickel column)
T5 sequence (O75822 whole entry N51A/W52A): as the sequence (O75822 whole entry W52A) above, with N51A counted along it
The test is described as above.

Test [2] concerns the target T2, heIF3j (full-length, untagged, wt). Kind of test: pull-down; His6-heIF3b-RRM (wt or mutant) incubated with untagged full-length heIF3j (30 μM each) 15 min at room temperature, His-select spin columns; 50 mM sodium phosphate pH 8, 100 mM NaCl; washes with 5 mM imidazole, elution with 250 mM imidazole; SDS-PAGE, InstantBlue.
The target of the test “heIF3b-RRM_(170-274)” is B1. Kind of test: NMR solution structure; 13C/15N-labeled heIF3b-RRM with heIF3j peptide or labeled peptide with heIF3b-RRM; 20 mM deuterated TRIS pH 7.5, 100 mM NaCl, 25°C; 0.7 mM RRM, 0.7-1.0 mM peptide; 32 intermolecular NOEs.

In general, Kd refers to the concentration at which binding is half-saturated. Lower therefore signals a tighter complex. For B1, the Kd with heIF3j-W52A is more than 10000 µM; in test [1] it was 20.3 µM; in the test with heIF3j-N51A, 55 ± 0.3 µM; with heIF3j-D50K-D53K-D57K it was more than 10000 µM; with heIF3j-N51A-W52A, more than 10000 µM.

B2: His6-heIF3b-RRM-Y253A (domain or fragment, human, UniProt P55884 170-274, looked up)
chain: GDVLKDRPQEADGIDSVIVVDNVPQVGPDRLEKLKNVIHKIFSKFGKITNDFYPEEDGKTKGYIFLEYASPAHAVDAVKNADGAKLDKQHTFRVNLFTDFDKYMT
notes: human eIF3b, RNA recognition motif domain, Y253A; source: E. coli BL21(DE3), purified (nickel-chelating column)
As to B2, the binding result in test [2] was “binds”.

B3: His6-heIF3b-RRM-I210A (domain or fragment, human, UniProt P55884 170-274, looked up)
chain: GDVLKDRPQEADGIDSVIVVDNVPQVGPDRLEKLKNVIHKAFSKFGKITNDFYPEEDGKTKGYIFLEYASPAHAVDAVKNADGYKLDKQHTFRVNLFTDFDKYMT
notes: human eIF3b, RNA recognition motif domain, I210A; source: E. coli BL21(DE3), purified (nickel-chelating column)
As for B3, the binding result in test [2] is reported as “binds”.

B4: His6-heIF3b-RRM-F261A (domain or fragment, human, UniProt P55884 170-274, looked up)
chain: GDVLKDRPQEADGIDSVIVVDNVPQVGPDRLEKLKNVIHKIFSKFGKITNDFYPEEDGKTKGYIFLEYASPAHAVDAVKNADGYKLDKQHTARVNLFTDFDKYMT
notes: human eIF3b, RNA recognition motif domain, F261A; source: E. coli BL21(DE3), purified (nickel-chelating column)
Consider B4, for which, in test [2], the binding result is “binds”.

B5: heIF3j_(35-69) peptide (peptide, UniProt O75822 35-69, looked up)
peptide: GGDRWEGEDEDEDVKDNWDDDDDEKKEEAEVKPEV
notes: human eIF3j, residues 35-69, with the N-terminal acidic motif (NTA) around Trp52; 13C/15N-labeled in some NMR samples; also called heIF3j peptide; short heIF3j peptide; source: E. coli BL21(DE3), purified (nickel-chelating column, TEV cleavage, nickel column, HiTrap DEAE); not shown: His6, N-terminal, cleaved; lipoyl domain, N-terminal, cleaved
As for B5, the binding result with heIF3b-RRM_(170-274) is recorded as “binds”.
